Laboratory results from patent US20210171647A1 (WUXI BIOLOGICS SHANGHAI, published 2021).

Assays:
Assay in all cases: ELISA, antibody coated, OX40-ECD.His mutant supernatant; relative to silent alanine substitutions;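 note: captured OX40 mutant protein detected with HRP-labelled anti-His antibody, absorbance read-out, scaled to the mean signal of control mutants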
human OX40-ECD.His S118A = target: T1, human OX40-ECD.His S118A (human, UniProt P43489 29-214)
T1 construct: extracellular domain; not shown: C-terminal His-tag
T1 sequence (looked up): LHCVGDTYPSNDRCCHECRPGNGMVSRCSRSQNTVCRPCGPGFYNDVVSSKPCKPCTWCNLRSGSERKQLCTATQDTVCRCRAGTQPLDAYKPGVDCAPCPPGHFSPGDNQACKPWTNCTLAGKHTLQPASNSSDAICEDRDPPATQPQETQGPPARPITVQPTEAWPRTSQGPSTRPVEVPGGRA

human OX40-ECD.His H44A = target: T2, human OX40-ECD.His H44A (human, UniProt P43489 29-214)
T2 construct: extracellular domain; not shown: C-terminal His-tag
T2 sequence (looked up): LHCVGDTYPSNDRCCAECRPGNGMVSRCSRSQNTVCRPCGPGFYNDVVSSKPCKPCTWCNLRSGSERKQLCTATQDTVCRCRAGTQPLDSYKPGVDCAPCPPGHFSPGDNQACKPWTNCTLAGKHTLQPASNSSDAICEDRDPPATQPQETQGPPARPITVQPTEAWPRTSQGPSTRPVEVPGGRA

human OX40-ECD.His H30A = target: T3, human OX40-ECD.His H30A (human, UniProt P43489 29-214)
T3 construct: extracellular domain; not shown: C-terminal His-tag
T3 sequence (looked up): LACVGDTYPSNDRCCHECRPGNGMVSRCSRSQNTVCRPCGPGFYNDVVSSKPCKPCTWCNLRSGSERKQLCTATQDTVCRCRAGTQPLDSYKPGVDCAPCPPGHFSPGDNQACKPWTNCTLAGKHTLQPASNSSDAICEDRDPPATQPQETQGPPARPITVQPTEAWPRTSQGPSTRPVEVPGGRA

human OX40-ECD.His T35A = target: T4, human OX40-ECD.His T35A (human, UniProt P43489 29-214)
T4 construct: extracellular domain; not shown: C-terminal His-tag
T4 sequence (looked up): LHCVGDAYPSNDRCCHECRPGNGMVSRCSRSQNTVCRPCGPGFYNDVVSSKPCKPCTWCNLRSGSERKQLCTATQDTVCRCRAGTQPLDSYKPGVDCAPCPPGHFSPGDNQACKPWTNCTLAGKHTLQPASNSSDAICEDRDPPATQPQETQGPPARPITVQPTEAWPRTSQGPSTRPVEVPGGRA

human OX40-ECD.His P115A = target: T5, human OX40-ECD.His P115A (human, UniProt P43489 29-214)
T5 construct: extracellular domain; not shown: C-terminal His-tag
T5 sequence (looked up): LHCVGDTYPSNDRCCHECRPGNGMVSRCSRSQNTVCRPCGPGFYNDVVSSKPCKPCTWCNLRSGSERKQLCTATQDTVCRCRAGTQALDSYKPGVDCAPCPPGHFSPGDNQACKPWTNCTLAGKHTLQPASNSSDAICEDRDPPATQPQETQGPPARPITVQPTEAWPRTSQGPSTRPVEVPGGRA

human OX40-ECD.His N146A = target: T6, human OX40-ECD.His N146A (human, UniProt P43489 29-214)
T6 construct: extracellular domain; not shown: C-terminal His-tag
T6 sequence (looked up): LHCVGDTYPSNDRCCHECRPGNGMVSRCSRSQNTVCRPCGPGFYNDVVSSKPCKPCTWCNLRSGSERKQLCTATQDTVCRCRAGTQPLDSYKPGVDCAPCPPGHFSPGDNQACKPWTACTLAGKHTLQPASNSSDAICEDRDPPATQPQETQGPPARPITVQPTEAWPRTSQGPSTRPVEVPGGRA

human OX40-ECD.His T154A = target: T7, human OX40-ECD.His T154A (human, UniProt P43489 29-214)
T7 construct: extracellular domain; not shown: C-terminal His-tag
T7 sequence (looked up): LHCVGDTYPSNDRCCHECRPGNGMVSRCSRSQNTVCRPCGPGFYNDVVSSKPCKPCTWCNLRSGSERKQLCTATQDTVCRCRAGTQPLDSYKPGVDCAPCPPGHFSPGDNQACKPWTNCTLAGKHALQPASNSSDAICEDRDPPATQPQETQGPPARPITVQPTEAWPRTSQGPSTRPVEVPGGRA

human OX40-ECD.His S77A = target: T8, human OX40-ECD.His S77A (human, UniProt P43489 29-214)
T8 construct: extracellular domain; not shown: C-terminal His-tag
T8 sequence (looked up): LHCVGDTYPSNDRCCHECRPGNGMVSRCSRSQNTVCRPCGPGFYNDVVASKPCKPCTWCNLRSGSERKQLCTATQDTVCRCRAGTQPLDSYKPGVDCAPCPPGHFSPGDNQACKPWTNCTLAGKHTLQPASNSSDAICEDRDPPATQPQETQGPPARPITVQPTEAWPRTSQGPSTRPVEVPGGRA

human OX40-ECD.His V63A = target: T9, human OX40-ECD.His V63A (human, UniProt P43489 29-214)
T9 construct: extracellular domain; not shown: C-terminal His-tag
T9 sequence (looked up): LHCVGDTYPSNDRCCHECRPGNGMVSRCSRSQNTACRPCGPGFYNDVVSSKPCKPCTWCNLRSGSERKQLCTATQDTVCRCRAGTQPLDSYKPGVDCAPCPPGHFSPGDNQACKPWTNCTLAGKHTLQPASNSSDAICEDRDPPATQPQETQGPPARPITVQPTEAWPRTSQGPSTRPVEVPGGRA

human OX40-ECD.His S161A = target: T10, human OX40-ECD.His S161A (human, UniProt P43489 29-214)
T10 construct: extracellular domain; not shown: C-terminal His-tag
T10 sequence (looked up): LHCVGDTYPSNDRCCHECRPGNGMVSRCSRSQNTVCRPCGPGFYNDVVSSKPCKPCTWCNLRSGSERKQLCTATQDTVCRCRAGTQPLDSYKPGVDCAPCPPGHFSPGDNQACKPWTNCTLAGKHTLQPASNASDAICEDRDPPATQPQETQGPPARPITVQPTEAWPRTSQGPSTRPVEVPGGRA

Fold Change (human OX40-ECD.His S118A): 0.969
Fold Change (human OX40-ECD.His H44A): 1
Fold Change (human OX40-ECD.His H30A): 1.01
Fold Change (human OX40-ECD.His T35A): 1.02
Fold Change (human OX40-ECD.His P115A): 0.632
Fold Change (human OX40-ECD.His N146A): 0.73
Fold Change (human OX40-ECD.His T154A): 0.843
Fold Change (human OX40-ECD.His S77A): 0.879
Fold Change (human OX40-ECD.His V63A): 0.886
Fold Change (human OX40-ECD.His S161A): 0.945
B1: 1.134.9-u1-IgG1L (antibody, V domains shown)
VH: QVQLQESGPGLVKPSGTLSLTCAVSGGSISSYNWWSWVRQPPGKGLEWIGEIYHGGNTNYNPSLKSRVTMSVDNSKNQFSLKLSSVTAADTAVYYCARAPGDWGGSPYFDFWGQGTLVTVSS
VL: SSELTQDPAVSVALGQTVRITCQGDNLRTYYASWYQQKPGQAPILLIYGRNKRPSGIPDRFSGSSSGNTASLTITGAQAEDEAAYYCNSRDSSGNPVVFGGGTKLTVL
notes: fully human IgG1, lambda
